Measurements reported in the supplement of paper PMC7125110.
± gives the standard error. For part of these data: Fewer inactive variants are shown than the library holds.

B1: glmS ribozyme (parent)
chain: AUAAAAGCGCCAGAACUACAGAAAUGUAGUUGACGAGGAGGAGGUUUAUCGAAUUUUCGGCGGAUGCCUCCAAA

Tests used:
Conditions in all cases: with glucosamine-6-phosphate
glucosamine-6-phosphate [1] = variants of: B1; assay: kcat; higher = faster cleavage; RNA array
Outline: (§1)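 In situ transcription by E. coli RNA polymerase produced barcoded ribozyme variants on sequenced MiSeq chips, and a hybridised Cy3 probe tracked them at 37 °C. Glucosamine-6-phosphate was flowed in at 40 μM to 10 mM in HEPES/KCl/Mg(OAc)2 buffer. kcat and KM were taken from weighted Michaelis–Menten fits of kobs values from exponential decay fits.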

glucosamine-6-phosphate [2] = variants of: B1; assay: self-cleavage kobs at 640 uM GlcN6P; higher = faster cleavage; RNA array
Outline: as §1

glucosamine-6-phosphate [3] = variants of: B1; assay: self-cleavage kobs at 2500 uM GlcN6P; higher = faster cleavage; RNA array
Outline: as §1

glucosamine-6-phosphate [4] = variants of: B1; assay: self-cleavage kobs at 10000 uM GlcN6P; higher = faster cleavage; RNA array
Outline: as §1

glucosamine-6-phosphate [5] = variants of: B1; assay: KM; higher = weaker cofactor use; RNA array
Outline: as §1

glucosamine-6-phosphate [6] = variants of: B1; assay: self-cleavage kobs at 160 uM GlcN6P; higher = faster cleavage; RNA array
Outline: as §1

glucosamine-6-phosphate [7] = variants of: B1; assay: self-cleavage kobs at 40 uM GlcN6P; higher = faster cleavage; RNA array
Outline: as §1

Row | Variant | kcat (glucosamine-6-phosphate [1]) | self-cleavage kobs at 640 uM GlcN6P (glucosamine-6-phosphate [2]) | self-cleavage kobs at 2500 uM GlcN6P (glucosamine-6-phosphate [3]) | self-cleavage kobs at 10000 uM GlcN6P (glucosamine-6-phosphate [4]) | KM (glucosamine-6-phosphate [5]) | self-cleavage kobs at 160 uM GlcN6P (glucosamine-6-phosphate [6]) | self-cleavage kobs at 40 uM GlcN6P (glucosamine-6-phosphate [7])
1 | C67A C70A | 5e-05 ± 6.5e-06 s⁻¹ | 4.23e-05 ± 1.8e-05 s⁻¹ | 6.33e-05 ± 1e-05 s⁻¹ | 4.28e-05 ± 7.3e-06 s⁻¹ |  |  | 
2 | U65G U69A | 0.000187 ± 3.2e-05 s⁻¹ | 5.5e-05 ± 1.2e-05 s⁻¹ | 0.000116 ± 2.2e-05 s⁻¹ | 0.000174 ± 5.3e-05 s⁻¹ | 1450 ± 480 µM |  | 
3 | U65G U69G | 6.55e-05 ± 6.1e-06 s⁻¹ | 3.94e-05 ± 1.3e-05 s⁻¹ | 6.29e-05 ± 1.2e-05 s⁻¹ | 6.56e-05 ± 1.1e-05 s⁻¹ |  | 4.06e-05 ± 1.8e-05 s⁻¹ | 
4 | G66U C68U | 0.000348 ± 2.4e-05 s⁻¹ | 0.000116 ± 1.2e-05 s⁻¹ | 0.000226 ± 4e-05 s⁻¹ | 0.000311 ± 2.9e-05 s⁻¹ | 1260 ± 190 µM | 3.82e-05 ± 1.3e-05 s⁻¹ | 2.21e-05 ± 1e-05 s⁻¹
5 | G66U C68G | 4.91e-05 ± 1.9e-05 s⁻¹ | 8.19e-05 ± 1.4e-05 s⁻¹ | 6.89e-05 ± 1.1e-05 s⁻¹ |  |  | 3.35e-05 ± 1.3e-05 s⁻¹ | 
6 | A6G U57A |  | < 1e-05 s⁻¹ |  |  |  | < 1e-05 s⁻¹ | < 1e-05 s⁻¹
7 | A6G U57G |  | < 1e-05 s⁻¹ | < 1e-05 s⁻¹ | < 1e-05 s⁻¹ |  | < 1e-05 s⁻¹ | < 1e-05 s⁻¹
8 | G66U C70U | 0.00205 ± 0.00047 s⁻¹ | 0.000507 ± 4.8e-05 s⁻¹ | 0.00124 ± 0.00016 s⁻¹ | 0.00175 ± 0.00019 s⁻¹ | 1830 ± 590 µM | 0.000141 ± 1.7e-05 s⁻¹ | 6.67e-05 ± 8e-06 s⁻¹
9 | A6G C16U G32C G41U C68U |  | < 1e-05 s⁻¹ | < 1e-05 s⁻¹ | < 1e-05 s⁻¹ |  |  | < 1e-05 s⁻¹
10 | A6C G32C U49G |  |  |  | < 1e-05 s⁻¹ |  |  | < 1e-05 s⁻¹
11 | A6C G44U G51A |  |  |  | < 1e-05 s⁻¹ |  |  | < 1e-05 s⁻¹
12 | U65A U69G | 5.5e-05 ± 1.5e-05 s⁻¹ | 4.35e-05 ± 1.4e-05 s⁻¹ | 8.3e-05 ± 1.9e-05 s⁻¹ |  |  | 7.34e-05 ± 1.9e-05 s⁻¹ | 
13 | A6G C61A |  |  | < 1e-05 s⁻¹ | < 1e-05 s⁻¹ |  |  | < 1e-05 s⁻¹
14 | A6G C61U |  | < 1e-05 s⁻¹ | < 1e-05 s⁻¹ | < 1e-05 s⁻¹ |  | < 1e-05 s⁻¹ | < 1e-05 s⁻¹
15 | A6G A15U C16G A53G C61G G63A |  | < 1e-05 s⁻¹ | < 1e-05 s⁻¹ |  |  | < 1e-05 s⁻¹ | < 1e-05 s⁻¹
16 | A6G U31C C68A |  |  |  |  |  |  | < 1e-05 s⁻¹
17 | A6G G38U A39G G51A C68G C70U |  |  |  |  |  |  | 7.83e-05 ± 3.2e-05 s⁻¹
18 | A6C A12G |  | < 1e-05 s⁻¹ |  |  |  | < 1e-05 s⁻¹ | < 1e-05 s⁻¹
